These results are taken from paper PMC4075756 (Nature, 2011).

The data set concerns the molecule itself. In words: SEC + other: sucrose gradient centrifugation.

B1: rat dynamin 1 lacking the proline-rich domain (Dyn1 ΔPRD) (domain or fragment)
chain: MGNRGMEDLIPLVNRLQDAFSAIGQNADLDLPQIAVVGGQSAGKSSVLENFVGRDFLPRGSGIVTRRPLVLQLVNSTTEYAEFLHCKGKKFTDFEEVRLEIEAETDRVTGTNKGISPVPINLRVYSPHVLNLTLVDLPGMTKVPVGDQPPDIEFQIRDMLMQFVTKENCLILAVSPANSDLANSDALKIAKEVDPQGQRTIGVITKLDLMDEGTDARDVLENKLLPLRRGYIGVVNRSQKDIDGKKDITAALAAERKFFLSHPSYRHLADRMGTPYLQKVLNQQLTNHIRDTLPGLRNKLQSQLLSIEKEVDEYKNFRPDDPARKTKALLQMVQQFAVDFEKRIEGSGDQIDTYELSGGARINRIFHERFPFELVKMEFDEKELRREISYAIKNIHGIRTGLFTPDLAFEATVKKQVQKLKEPSIKCVDMVVSELTSTIRKCSEKLQQYPRLREEMERIVTTHIREREGRTKEQVMLLIDIELAYMNTNHEDFIGFANAQQRSNQMNKKKTSGNQDEILVIRKGWLTINNIGIMKGGSKEYWFVLTAENLSWYKDDEEKEKKYMLSVDNLKLRDVEKGFMSSKHIFALFNTEQRNVYKDYRQLELACETQEEVDSWKASFLRAGVYPERVGDKEKASETEENGSDSFMHSMDPQLERQVETIRNLVDSYMAIVNKTVRDLMPKTIMHLMINNTKEFIFSELLANLYSCGDQNTLMEESAEQAQRRDEMLRMYHALKEALSIIGDINTTTVST
In the case of B1, the “stoichiometry N” value is 2.

Usually stoichiometry N stands for a count of units in the complex or per binding partner.
